{
  "source": "paper PMC10519996",
  "key": {"Q2XVP4 [1]": {"test_system": "Q2XVP4", "assay": "cryo-EM structure; single-particle cryo-EM of porcine tubulin (5 mg/ml) incubated with 1.5 mM GMPCPP on ice for 20-30 min, peak fraction of gel filtration (Superdex 200 Increase 3.2/300), 1-2 μM on graphene grids, no cofactors or depolymerizing reagents; heterodimer map at 3.5 Å; tetramers by 2D …"}, "Q2XVP4 [2]": {"test_system": "Q2XVP4", "assay": "cryo-EM structure; single-particle cryo-EM of porcine tubulin incubated with GDP on ice, peak fraction of gel filtration (Superdex 200 Increase 3.2/300), 1-2 μM on graphene grids, no cofactors or depolymerizing reagents; heterodimer maps at 3.6 Å and 3.9 Å; tetramers by 2D and 3D classification …"}},
  "data": [
    {"substance": "porcine αβ-tubulin heterodimer", "values": [
      {"measurement": "percent of the particles per micrograph that are tubulin hexamers (three heterodimers)", "setting": "Q2XVP4 [1]", "result": "64%, 29%, and 7%"},
      {"measurement": "percent of the particles per micrograph that are tubulin tetramers (two heterodimers)", "setting": "Q2XVP4 [1]", "result": "64%, 29%, and 7%"},
      {"measurement": "percent of the particles per micrograph that are tubulin hexamers (three heterodimers)", "setting": "Q2XVP4 [2]", "result": "62%, 32%, and 6%"},
      {"measurement": "percent of the particles per micrograph that are tubulin tetramers (two heterodimers)", "setting": "Q2XVP4 [2]", "result": "62%, 32%, and 6%"}
    ]}
  ]
}
